{"source": "the MegaScale stability set (Tsuboyama et al. 2023)", "parents": {"B1": {"name": "EEHEE_rd4_0469 (parent)", "chain": "ITIHVNGVTYHFDNPEEAEKFAQKMAKTYQLKMEIHNGEFHME"}}}
{"variants_of": "B1", "assay": "folding stability dG (cDNA display proteolysis); higher = more stable", "conditions": "PBS, room temperature", "units": {"folding stability dG": "kcal/mol"}}
{"variant": "ITIHVNGVTYHFDNPEEAEKFAQKMAKTYQLKMEIHWGEFHME", "note": "[N37W]", "folding stability dG": 1.17}
{"variant": "ITIHVNGVTYHFDNPEEAEKFAQKMAKTYQLKMEIHYGEFHME", "note": "[N37Y]", "folding stability dG": 1.14}
{"variant": "ITIHVNGVTYHFDNPEEAEKFAQKMAKTYQLKMEIHNAEFHME", "note": "[G38A]", "folding stability dG": 0.774}
{"variant": "ITIHVNGVTYHFDNPEEAEKFAQKMAKTYQLKMEIHNCEFHME", "note": "[G38C]", "folding stability dG": 2.21}
{"variant": "ITIHVNGVTYHFDNPEEAEKFAQKMAKTYQLKMEIHNDEFHME", "note": "[G38D]", "folding stability dG": 0.717}
{"variant": "ITIHVNGVTYHFDNPEEAEKFAQKMAKTYQLKMEIHNEEFHME", "note": "[G38E]", "folding stability dG": 0.77}
{"variant": "ITIHVNGVTYHFDNPEEAEKFAQKMAKTYQLKMEIHNFEFHME", "note": "[G38F]", "folding stability dG": 0.963}
{"variant": "ITIHVNGVTYHFDNPEEAEKFAQKMAKTYQLKMEIHNHEFHME", "note": "[G38H]", "folding stability dG": 0.885}
{"variant": "ITIHVNGVTYHFDNPEEAEKFAQKMAKTYQLKMEIHNIEFHME", "note": "[G38I]", "folding stability dG": 0.832}
{"variant": "ITIHVNGVTYHFDNPEEAEKFAQKMAKTYQLKMEIHNKEFHME", "note": "[G38K]", "folding stability dG": 0.72}
{"variant": "ITIHVNGVTYHFDNPEEAEKFAQKMAKTYQLKMEIHNLEFHME", "note": "[G38L]", "folding stability dG": 0.917}
{"variant": "ITIHVNGVTYHFDNPEEAEKFAQKMAKTYQLKMEIHNMEFHME", "note": "[G38M]", "folding stability dG": 0.798}
{"variant": "ITIHVNGVTYHFDNPEEAEKFAQKMAKTYQLKMEIHNNEFHME", "note": "[G38N]", "folding stability dG": 0.855}
{"variant": "ITIHVNGVTYHFDNPEEAEKFAQKMAKTYQLKMEIHNPEFHME", "note": "[G38P]", "folding stability dG": 0.616}
{"variant": "ITIHVNGVTYHFDNPEEAEKFAQKMAKTYQLKMEIHNQEFHME", "note": "[G38Q]", "folding stability dG": 0.664}
{"variant": "ITIHVNGVTYHFDNPEEAEKFAQKMAKTYQLKMEIHNREFHME", "note": "[G38R]", "folding stability dG": 0.609}
{"variant": "ITIHVNGVTYHFDNPEEAEKFAQKMAKTYQLKMEIHNSEFHME", "note": "[G38S]", "folding stability dG": 0.699}
{"variant": "ITIHVNGVTYHFDNPEEAEKFAQKMAKTYQLKMEIHNTEFHME", "note": "[G38T]", "folding stability dG": 0.717}
{"variant": "ITIHVNGVTYHFDNPEEAEKFAQKMAKTYQLKMEIHNVEFHME", "note": "[G38V]", "folding stability dG": 0.627}
{"variant": "ITIHVNGVTYHFDNPEEAEKFAQKMAKTYQLKMEIHNWEFHME", "note": "[G38W]", "folding stability dG": 0.914}
{"variant": "ITIHVNGVTYHFDNPEEAEKFAQKMAKTYQLKMEIHNYEFHME", "note": "[G38Y]", "folding stability dG": 0.871}
{"variant": "ITIHVNGVTYHFDNPEEAEKFAQKMAKTYQLKMEIHNGAFHME", "note": "[E39A]", "folding stability dG": 1.02}
{"variant": "ITIHVNGVTYHFDNPEEAEKFAQKMAKTYQLKMEIHNGCFHME", "note": "[E39C]", "folding stability dG": 1.69}
{"variant": "ITIHVNGVTYHFDNPEEAEKFAQKMAKTYQLKMEIHNGDFHME", "note": "[E39D]", "folding stability dG": 0.969}
{"variant": "ITIHVNGVTYHFDNPEEAEKFAQKMAKTYQLKMEIHNGFFHME", "note": "[E39F]", "folding stability dG": 0.886}
{"variant": "ITIHVNGVTYHFDNPEEAEKFAQKMAKTYQLKMEIHNGGFHME", "note": "[E39G]", "folding stability dG": 0.755}
{"variant": "ITIHVNGVTYHFDNPEEAEKFAQKMAKTYQLKMEIHNGHFHME", "note": "[E39H]", "folding stability dG": 1.16}
{"variant": "ITIHVNGVTYHFDNPEEAEKFAQKMAKTYQLKMEIHNGIFHME", "note": "[E39I]", "folding stability dG": 1.17}
{"variant": "ITIHVNGVTYHFDNPEEAEKFAQKMAKTYQLKMEIHNGKFHME", "note": "[E39K]", "folding stability dG": 0.828}
{"variant": "ITIHVNGVTYHFDNPEEAEKFAQKMAKTYQLKMEIHNGLFHME", "note": "[E39L]", "folding stability dG": 0.728}
{"variant": "ITIHVNGVTYHFDNPEEAEKFAQKMAKTYQLKMEIHNGMFHME", "note": "[E39M]", "folding stability dG": 0.924}
{"variant": "ITIHVNGVTYHFDNPEEAEKFAQKMAKTYQLKMEIHNGNFHME", "note": "[E39N]", "folding stability dG": 0.81}
{"variant": "ITIHVNGVTYHFDNPEEAEKFAQKMAKTYQLKMEIHNGPFHME", "note": "[E39P]", "folding stability dG": 0.802}
{"variant": "ITIHVNGVTYHFDNPEEAEKFAQKMAKTYQLKMEIHNGQFHME", "note": "[E39Q]", "folding stability dG": 1.11}
{"variant": "ITIHVNGVTYHFDNPEEAEKFAQKMAKTYQLKMEIHNGRFHME", "note": "[E39R]", "folding stability dG": 0.762}
{"variant": "ITIHVNGVTYHFDNPEEAEKFAQKMAKTYQLKMEIHNGSFHME", "note": "[E39S]", "folding stability dG": 0.882}
{"variant": "ITIHVNGVTYHFDNPEEAEKFAQKMAKTYQLKMEIHNGTFHME", "note": "[E39T]", "folding stability dG": 0.836}
{"variant": "ITIHVNGVTYHFDNPEEAEKFAQKMAKTYQLKMEIHNGVFHME", "note": "[E39V]", "folding stability dG": 1.07}
{"variant": "ITIHVNGVTYHFDNPEEAEKFAQKMAKTYQLKMEIHNGWFHME", "note": "[E39W]", "folding stability dG": 0.978}
{"variant": "ITIHVNGVTYHFDNPEEAEKFAQKMAKTYQLKMEIHNGYFHME", "note": "[E39Y]", "folding stability dG": 0.934}
{"variant": "ITIHVNGVTYHFDNPEEAEKFAQKMAKTYQLKMEIHNGEAHME", "note": "[F40A]", "folding stability dG": 0.744}
{"variant": "ITIHVNGVTYHFDNPEEAEKFAQKMAKTYQLKMEIHNGECHME", "note": "[F40C]", "folding stability dG": 1.79}
{"variant": "ITIHVNGVTYHFDNPEEAEKFAQKMAKTYQLKMEIHNGEDHME", "note": "[F40D]", "folding stability dG": 0.578}
{"variant": "ITIHVNGVTYHFDNPEEAEKFAQKMAKTYQLKMEIHNGEEHME", "note": "[F40E]", "folding stability dG": 0.603}
{"variant": "ITIHVNGVTYHFDNPEEAEKFAQKMAKTYQLKMEIHNGEGHME", "note": "[F40G]", "folding stability dG": 0.641}
{"variant": "ITIHVNGVTYHFDNPEEAEKFAQKMAKTYQLKMEIHNGEHHME", "note": "[F40H]", "folding stability dG": 0.761}
{"variant": "ITIHVNGVTYHFDNPEEAEKFAQKMAKTYQLKMEIHNGEIHME", "note": "[F40I]", "folding stability dG": 1.6}
{"variant": "ITIHVNGVTYHFDNPEEAEKFAQKMAKTYQLKMEIHNGEKHME", "note": "[F40K]", "folding stability dG": 0.661}
{"variant": "ITIHVNGVTYHFDNPEEAEKFAQKMAKTYQLKMEIHNGELHME", "note": "[F40L]", "folding stability dG": 1.37}
{"variant": "ITIHVNGVTYHFDNPEEAEKFAQKMAKTYQLKMEIHNGEMHME", "note": "[F40M]", "folding stability dG": 1.23}
{"variant": "ITIHVNGVTYHFDNPEEAEKFAQKMAKTYQLKMEIHNGENHME", "note": "[F40N]", "folding stability dG": 0.711}
{"variant": "ITIHVNGVTYHFDNPEEAEKFAQKMAKTYQLKMEIHNGEPHME", "note": "[F40P]", "folding stability dG": 0.69}
{"variant": "ITIHVNGVTYHFDNPEEAEKFAQKMAKTYQLKMEIHNGEQHME", "note": "[F40Q]", "folding stability dG": 0.754}
{"variant": "ITIHVNGVTYHFDNPEEAEKFAQKMAKTYQLKMEIHNGERHME", "note": "[F40R]", "folding stability dG": 0.623}
{"variant": "ITIHVNGVTYHFDNPEEAEKFAQKMAKTYQLKMEIHNGESHME", "note": "[F40S]", "folding stability dG": 0.704}
{"variant": "ITIHVNGVTYHFDNPEEAEKFAQKMAKTYQLKMEIHNGETHME", "note": "[F40T]", "folding stability dG": 0.801}
{"variant": "ITIHVNGVTYHFDNPEEAEKFAQKMAKTYQLKMEIHNGEVHME", "note": "[F40V]", "folding stability dG": 1.19}
{"variant": "ITIHVNGVTYHFDNPEEAEKFAQKMAKTYQLKMEIHNGEWHME", "note": "[F40W]", "folding stability dG": 1.76}
{"variant": "ITIHVNGVTYHFDNPEEAEKFAQKMAKTYQLKMEIHNGEYHME", "note": "[F40Y]", "folding stability dG": 1.31}
